Measurements taken from the supplement of paper PMC6755084.

B1: minF1; a variant is named by its letters at N, in order (parent)
chain: GAGACCGCAACTGAAAAGTTGTTNNNNAANNNNGGNTNNATTTCTGCACGTAGAAGCAAAAGGC

Variants of: B1
Test: fraction ligated after 30 min (ligated reads / total reads); higher = more ligase activity
Settings: with F1*subA RNA substrate (template-directed ligation), 42 °C
Description: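 Chip-synthesised pool of minF1 ligase ribozyme variants (single and double substitutions, single to quadruple deletions, bulge and P2 designed variants) was transcribed with T7 and reacted as a pool with excess substrate F1*subA for 30 min at 42 C in 50 mM EPPS pH 8.5, 25 mM MgCl2. Ligated and unligated RNAs were separated by PAGE, barcoded by RT and deep sequenced; fraction ligated = ligated reads / total reads, relative activity = FL / FL of wild-type minF1 (0.76); sequencing FL correlated with PAGE (R2 = 0.98). Sequences are the DNA template of the ribozyme.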

Variant	fraction ligated
GAGACCGCAACTGAAAAGTTGTTATAGAAATGGATGGTTGTTTCTGCACGTAGAAGCAAAAGGC	0.00103
GAGACCGCAACTGAAAAGTTGTTCGAAATGGATGGTTGAATTTCTGCACGTAGAAGCAAAAGGC	0.00943
GAGACCGCAACTGAAAAGTTGTTATAATGGATGGGTTGAATTTCTGCACGTAGAAGCAAAAGGC	0.0107
GAGACCGCAACTGAAAAGTTGTTATAGAAAGGAGGGTTAATTTCTGCACGTAGAAGCAAAAGGC	0.00256
GAGACCGCAACTGAAAAGTTGTTATAGAAAGGAGGGTTGATTTCTGCACGTAGAAGCAAAAGGC	0.00449
GAGACCGCAACTGAAAAGTTGTTATAGAAAGAGGGTTGAATTTCTGCACGTAGAAGCAAAAGGC	0.000691
GAGACCGCAACTGAAAAGTTGTTATAAATGGATGGGTTGATTTCTGCACGTAGAAGCAAAAGGC	0.00947
GAGACCGCAACTGAAAAGTTGTCAGAAATGGATGGTTGAATTTCTGCACGTAGAAGCAAAAGGC	0.00646
GAGACCGCAACTGAAAAGTTGTTATAGAAAGGTGGGTTAATTTCTGCACGTAGAAGCAAAAGGC	0.00141
GAGACCGCAACTGAAAAGTTGTTATAGAAAGGTGGGTTGATTTCTGCACGTAGAAGCAAAAGGC	0.00428
GAGACCGCAACTGAAAAGTTGTTATAGAAAGGTGGTTGAATTTCTGCACGTAGAAGCAAAAGGC	0.00247
GAGACCGCAACTGAAAAGTTGTCAGAAATGGTGGGTTGAATTTCTGCACGTAGAAGCAAAAGGC	0.00383
GAGACCGCAACTGAAAAGTTGTTATAAATGGAGGGTTGAATTTCTGCACGTAGAAGCAAAAGGC	0.00469
GAGACCGCAACTGAAAAGTTGTTATAGAAAGTGGGTTGAATTTCTGCACGTAGAAGCAAAAGGC	0.00554
GAGACCGCAACTGAAAAGTTGTTATAGAAATGAGGGTTGATTTCTGCACGTAGAAGCAAAAGGC	0.0071
GAGACCGCAACTGAAAAGTTGTTATAGAAATGAGGGTTAATTTCTGCACGTAGAAGCAAAAGGC	0.00311
GAGACCGCAACTGAAAAGTTGTTATAAATGGTGGGTTGAATTTCTGCACGTAGAAGCAAAAGGC	0.00316
GAGACCGCAACTGAAAAGTTGTTATAGAAATGATGGTTAATTTCTGCACGTAGAAGCAAAAGGC	0.0034
GAGACCGCAACTGAAAAGTTGTTATAGAAATGATGGGTTATTTCTGCACGTAGAAGCAAAAGGC	0.00193
GAGACCGCAACTGAAAAGTTGTACGAAATGGATGGTTGAATTTCTGCACGTAGAAGCAAAAGGC	0.0076
GAGACCGCAACTGAAAAGTTGTTATAAAATGGATGGTTAATTTCTGCACGTAGAAGCAAAAGGC	0.00307

Variant	fraction ligated
GAGACCGCAACTGAAAAGTTGTTATAGAAATGAGGTTGAATTTCTGCACGTAGAAGCAAAAGGC	0.00363
GAGACCGCAACTGAAAAGTTGTTATAAAATGATGGGTTAATTTCTGCACGTAGAAGCAAAAGGC	0.00361
GAGACCGCAACTGAAAAGTTGTTATAAAATGATGGGTTGATTTCTGCACGTAGAAGCAAAAGGC	0.00571
GAGACCGCAACTGAAAAGTTGTTATAGAAATATGGGTTGATTTCTGCACGTAGAAGCAAAAGGC	0.013
GAGACCGCAACTGAAAAGTTGTTATAGAAATATGGGTTAATTTCTGCACGTAGAAGCAAAAGGC	0.00365
GAGACCGCAACTGAAAAGTTGTTATAGAAATGGAGGGTTATTTCTGCACGTAGAAGCAAAAGGC	0.000508
GAGACCGCAACTGAAAAGTTGTTTGAAATGGTGGGTTGAATTTCTGCACGTAGAAGCAAAAGGC	0.00178
GAGACCGCAACTGAAAAGTTGTTATAAAATGGATGGGTTATTTCTGCACGTAGAAGCAAAAGGC	0.00161
GAGACCGCAACTGAAAAGTTGTTATAAATGGATGGTTGAATTTCTGCACGTAGAAGCAAAAGGC	0.00367
GAGACCGCAACTGAAAAGTTGTTATAGAAATGGATGGTTATTTCTGCACGTAGAAGCAAAAGGC	0.0013
GAGACCGCAACTGAAAAGTTGTTATAGAAATGGAGGGTTGTTTCTGCACGTAGAAGCAAAAGGC	0
GAGACCGCAACTGAAAAGTTGTTATAAAATGATGGTTGAATTTCTGCACGTAGAAGCAAAAGGC	0.00291
GAGACCGCAACTGAAAAGTTGTTATAGAAAGATGGGTTAATTTCTGCACGTAGAAGCAAAAGGC	0.00327
GAGACCGCAACTGAAAAGTTGTTATAGAAAGATGGGTTGATTTCTGCACGTAGAAGCAAAAGGC	0.00764
GAGACCGCAACTGAAAAGTTGTTATAGAAATAGGGTTGAATTTCTGCACGTAGAAGCAAAAGGC	0.00268
GAGACCGCAACTGAAAAGTTGTTATAAAAGGAGGGTTGAATTTCTGCACGTAGAAGCAAAAGGC	0.000696
GAGACCGCAACTGAAAAGTTGTTATAAAATGGAGGGTTGATTTCTGCACGTAGAAGCAAAAGGC	0.00646
GAGACCGCAACTGAAAAGTTGTTATAAAATGGAGGGTTAATTTCTGCACGTAGAAGCAAAAGGC	0.00371
GAGACCGCAACTGAAAAGTTGTATGAAATGGATGGTTGAATTTCTGCACGTAGAAGCAAAAGGC	0.00566
GAGACCGCAACTGAAAAGTTGTTATAAAAGATGGGTTGAATTTCTGCACGTAGAAGCAAAAGGC	0.00253
GAGACCGCAACTGAAAAGTTGTTATAGAAATGGTGGTTGATTTCTGCACGTAGAAGCAAAAGGC	0.00668

Variant	fraction ligated
GAGACCGCAACTGAAAAGTTGTTATAGAAATGGAGGTTGATTTCTGCACGTAGAAGCAAAAGGC	0.00708
GAGACCGCAACTGAAAAGTTGTTAGAAATGGTGGGTTGAATTTCTGCACGTAGAAGCAAAAGGC	0.0036
GAGACCGCAACTGAAAAGTTGTATGAAATGGTGGGTTGAATTTCTGCACGTAGAAGCAAAAGGC	0.00263
GAGACCGCAACTGAAAAGTTGTTATAGAAATGATGGGTTGTTTCTGCACGTAGAAGCAAAAGGC	0.00153
GAGACCGCAACTGAAAAGTTGTTATAGAAAGGATGGTTGATTTCTGCACGTAGAAGCAAAAGGC	0.0028
GAGACCGCAACTGAAAAGTTGTTATAGAAATATGGTTGAATTTCTGCACGTAGAAGCAAAAGGC	0.00398
GAGACCGCAACTGAAAAGTTGTTATAGAAAGATGGTTGAATTTCTGCACGTAGAAGCAAAAGGC	0.0019
GAGACCGCAACTGAAAAGTTGTTATAAAATGTGGGTTGAATTTCTGCACGTAGAAGCAAAAGGC	0.00221
GAGACCGCAACTGAAAAGTTGTACGAAATGGTGGGTTGAATTTCTGCACGTAGAAGCAAAAGGC	0.000502
GAGACCGCAACTGAAAAGTTGTAAGAAATGGATGGTTGAATTTCTGCACGTAGAAGCAAAAGGC	0.00594
GAGACCGCAACTGAAAAGTTGTTATAGAAAGGGGGTTGAATTTCTGCACGTAGAAGCAAAAGGC	0.00176
GAGACCGCAACTGAAAAGTTGTTATAGAAATGGAGGTTAATTTCTGCACGTAGAAGCAAAAGGC	0.00325
GAGACCGCAACTGAAAAGTTGTTATAGAAATGGTGGTTAATTTCTGCACGTAGAAGCAAAAGGC	0.00288
GAGACCGCAACTGAAAAGTTGTAAGAAATGGTGGGTTGAATTTCTGCACGTAGAAGCAAAAGGC	0.00188
GAGACCGCAACTGAAAAGTTGTTATAAATGATGGGTTGAATTTCTGCACGTAGAAGCAAAAGGC	0.00321
GAGACCGCAACTGAAAAGTTGTTATAAAGGATGGGTTGAATTTCTGCACGTAGAAGCAAAAGGC	0.00765
GAGACCGCAACTGAAAAGTTGTTATAAATGGATGGGTTAATTTCTGCACGTAGAAGCAAAAGGC	0.00345
GAGACCGCAACTGAAAAGTTGTTATAGAAAATGGGTTGAATTTCTGCACGTAGAAGCAAAAGGC	0.00417
GAGACCGCAACTGAAAAGTTGTTATAAAAGGTGGGTTGAATTTCTGCACGTAGAAGCAAAAGGC	0.00238
GAGACCGCAACTGAAAAGTTGTTATAGAAAGGATGGTTAATTTCTGCACGTAGAAGCAAAAGGC	0.00281
GAGACCGCAACTGAAAAGTTGTTATAAAATGGTGGTTGAATTTCTGCACGTAGAAGCAAAAGGC	0.00319

Variant	fraction ligated
GAGACCGCAACTGAAAAGTTGTTATAGAAAGGATGGGTTGTTTCTGCACGTAGAAGCAAAAGGC	0.00121
GAGACCGCAACTGAAAAGTTGTTATAAAATGAGGGTTGAATTTCTGCACGTAGAAGCAAAAGGC	0.00461
GAGACCGCAACTGAAAAGTTGTTAGAAATGGATGGTTGAATTTCTGCACGTAGAAGCAAAAGGC	0.00498
GAGACCGCAACTGAAAAGTTGTTATAAAATGGATGGTTGATTTCTGCACGTAGAAGCAAAAGGC	0.0113
GAGACCGCAACTGAAAAGTTGTTATAAAAGGATGGTTGAATTTCTGCACGTAGAAGCAAAAGGC	0.0033
GAGACCGCAACTGAAAAGTTGTTATAAAATGGTGGGTTGATTTCTGCACGTAGAAGCAAAAGGC	0.00419
GAGACCGCAACTGAAAAGTTGTTATAAAATGGTGGGTTAATTTCTGCACGTAGAAGCAAAAGGC	0.00235
GAGACCGCAACTGAAAAGTTGTTATAGAAAGGATGGGTTATTTCTGCACGTAGAAGCAAAAGGC	0.00132
GAGACCGCAACTGAAAAGTTGTTATAAAAGGATGGGTTAATTTCTGCACGTAGAAGCAAAAGGC	0.00287
GAGACCGCAACTGAAAAGTTGTTATAAAAGGATGGGTTGATTTCTGCACGTAGAAGCAAAAGGC	0.00567
GAGACCGCAACTGAAAAGTTGTTATAAAATGGAGGTTGAATTTCTGCACGTAGAAGCAAAAGGC	0.00189
GAGACCGCAACTGAAAAGTTGTTATAGAAAGGAGGTTGAATTTCTGCACGTAGAAGCAAAAGGC	0.00219
GAGACCGCAACTGAAAAGTTGTTATAAAATGGGGGTTGAATTTCTGCACGTAGAAGCAAAAGGC	0.00329
GAGACCGCAACTGAAAAGTTGTTATAGAAATGGGGGTTAATTTCTGCACGTAGAAGCAAAAGGC	0.00171
GAGACCGCAACTGAAAAGTTGTTATAGAAATGGGGGTTGATTTCTGCACGTAGAAGCAAAAGGC	0.00885
GAGACCGCAACTGAAAAGTTGTTATAGAAATGATGGTTGATTTCTGCACGTAGAAGCAAAAGGC	0.00408
GAGACCGCAACTGAAAAGTTGTTATAAAATGGATGGGTTGTTTCTGCACGTAGAAGCAAAAGGC	0.00113
GAGACCGCAACTGAAAAGTTGTTTGAAATGGATGGTTGAATTTCTGCACGTAGAAGCAAAAGGC	0.0036
GAGACCGCAACTGAAAAGTTGTTCGAAATGGTGGGTTGAATTTCTGCACGTAGAAGCAAAAGGC	0.00384
GAGACCGCAACTGAAAAGTTGTTATAGAAATGGATGGGTTTTTCTGCACGTAGAAGCAAAAGGC	0.00172
GAGACCGCAACTGAAAAGTTGTTATAAAATATGGGTTGAATTTCTGCACGTAGAAGCAAAAGGC	0.00335
